4 molecules from US20190225690A1 (CROWN BIOSCIENCE TAICANG, published 2019) can be followed below.

The target in test [1] is T1, human CTLA4 on hCTLA4-293T cells (human, UniProt P16410 36-223).
T1 construct: whole, on cells
T1 sequence (looked up): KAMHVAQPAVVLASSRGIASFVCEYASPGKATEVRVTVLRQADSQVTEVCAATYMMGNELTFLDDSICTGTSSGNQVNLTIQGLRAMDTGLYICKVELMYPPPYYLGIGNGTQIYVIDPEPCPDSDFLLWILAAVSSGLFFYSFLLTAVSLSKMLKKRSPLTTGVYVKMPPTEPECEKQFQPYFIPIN
Briefly: FACS blockage of biotinylated human CD80 binding to hCTLA4-293T cells. The procedure: (§1) Various concentrations of the testing hybridoma antibodies were added to the cell suspension and incubated at 4° C. for 60 minutes in 96 well plates. Biotin-labeled CD80 protein was added into the wells and incubated at 4° C. for 60 minutes. […] Flow cytometric analyses were performed using a FACS Array.
(§2) The purified hybridoma antibodies were characterized further based on ELISA and FACS analyses. The methods applied were similar to those described above in Example 2 except that in these cases, purified antibodies were used to measure EC50 and IC50.

Test [2] deals with mouse CTLA4 (mouse, UniProt P09793 36-161, limits assumed). Briefly: protein based ELISA and other assays, not named. In general terms: ELISA stands for enzyme-linked immunosorbent assay.
The target of test [3] is T2, human CTLA4-hFc (human).
T2 construct: Extracellular domain of human CTLA4 fused with a human Fc tag; also called hCTLA4-hFc
Briefly: ELISA, purified murine antibody on coated human CTLA4-hFc. The method, then: ELISA binding analysis was conducted using human CTLA4-hFc. 96-well plates (Costar, Cat No: 9018) were coated with 100 μl of 2 μg/ml CTLA4-hFc (CrownBio) in coating buffer (PBS, Hyclone, Cat No: SH30256.01B) overnight at 4° C. The wells were aspirated and non-specific binding sites were blocked by adding 200 μl of blocking buffer with 1% (w/v) of bovine serum albumin (BSA, Roche, Cat No: 738328) and incubating for 1 hour at 37° C. After the plates are washed three times with wash buffer (PBS with 0.05% (v/v) TWEEN-20™ (Sigma, Cat No: P1379)), 100 μl/well of a suitable dilutions of hybridoma supernatant in blocking buffer were added and incubated at room temperature for 1 hour. The plates were washed and incubated with 100 μl/well of Goat anti-Mouse IgG (H+L) (Thermo, Cat No: 31432) in blocking buffer for 60 min. After the plates were washed, 100 μl/well of substrate solution TMB (eBioscience, Cat No: 00-4201-56) was added and the plates were incubated for 2 min at room temperature. 100 μl/well of stop solution (2N H₂SO₄) was added to stop the reaction. The colorimetric signals were developed and read at 450 nm using a Auto Plate SpectraMax Plus (Supplier: Molecular Devices; Model: MNR0643; Software: SoftMax Pro v5.4). Through this method, hybridoma cell lines that produce antibodies highly specifically binding to the human CTLA4 protein were repeatedly selected. […]

The target in test [4] is T3, human CTLA4 (construct not stated) (human, UniProt P16410 36-161, limits assumed).
T3 sequence (looked up): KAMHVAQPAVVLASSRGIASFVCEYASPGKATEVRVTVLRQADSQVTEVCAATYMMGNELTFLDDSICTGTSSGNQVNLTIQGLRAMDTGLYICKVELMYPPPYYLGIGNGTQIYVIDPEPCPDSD
Briefly: SPR (Biacore 3000), antibody captured by anti-mouse Fc mAb, CTLA4 as analyte. The method, then:
(§3) To further characterize the binding characteristics of the antibodies, the hybridoma antibodies were profiled using Biacore (Biacore 3000, GE) to elucidate binding kinetics and calculate equilibrium binding constants. This assay was performed by capture method, using the mouse antibody capture kit (BR-1008-38, GE). After diluting anti-mouse Fc mab to 25 μg/ml in pH 5.0 immobilization buffer, immobilization was conducted with the parameters shown in Table 9 at a flow rate of 5 μl/min. The kinetic runs were done by 1) injecting ligand for typical 0.5-1 min at flow rate of 10 μl/min.; 2) injecting analytes of choice for typical 3 min followed by dissociation in running buffer (1×PBS-P20) for typical 5-10 min at flow rate of 30 μl/min.; and 3) injecting regeneration solution 10 mM Glycine pH 1.7 for typical 1-2 min at flow rate of 10 μl/min.
For orientation: In SPR one partner is held on a chip, and binding of the other changes the refractive index at the surface.

Test [5] addresses T1, human CTLA4 on hCTLA4-293T cells. Briefly: FACS on hCTLA4-293T cells, purified murine antibody. The method, then: (§4) The cells were incubated with the indicated antibody (20 μg/ml with the dilution of 1/5) at 4° C. for 1 hour. Cells were washed three times with FACS buffer. A secondary antibody (PE Goat anti-mouse: 1:200; PE mouse anti-human: 1:10) was added to the cells at 100 μl/well, and incubated at 4° C. for 40 min. Cells were washed three times with FACS buffer and analyzed by FACS Array.
as §2

In test [6] the target is T4, human CTLA4-mFc (human).
T4 construct: Extracellular domain of human CTLA4 fused with mouse Fc; also called hCTLA4-mFc
Briefly: ELISA blockage of biotinylated CD80-mFc binding to coated human CTLA4-mFc. The procedure:
(§5) ELISA based ligand blockage analysis was conducted via blocking biotinylated human CD80-mFc from binding to human CTLA4-mFc. CTLA4-mFc antigen (CrownBio) was suspended in PBS (Hyclone, Cat No: SH30256.01B) buffer (2 μg/ml, 100 μl/well) and coated on the 96 well plate (Costar, Cat No: 9018) 4° C. overnight. Plates were washed 3 times using washing buffer: PBS+0.05% Tween 20 (Sigma, Cat No: P1379). 200 μl of blocking buffer (PBS+1% BSA (Roche, Cat No: 738328)) was added to each well, incubated at 37° C. for 1 hour, and washed 3 times. Various concentrations (suitable dilutions of hybridoma supernatant in PBS) of the anti-CTLA4 antibodies were added to the wells (100 μl/well) and incubated at 37° C. for 1 hour. Ligand was added (0.1 μg/ml CD80-mFc-biotin, 100 μl/well), incubated at 37° C. for 2 hours, and washed 3 times. Secondary antibody (Avidin HRP, eBioscience Cat No: E07418-1632, 1:500, 100 μl/well) was added, incubated at 37° C. for 0.5 hour, and washed 3 times. TMB (Sigma, Cat No: T0440, 100 μl/well) was added, and incubated for 3 min at room temperature. To stop the reaction, 2N H₂SO₄ (100 μl/well), was added. The colorimetric signals were developed and read at 450 nm using an Auto Plate SpectraMax Plus (Supplier: Molecular Devices; Model: MNR0643; Software: SoftMax Pro v5.4).
The purified hybridoma antibodies were characterized further based on ELISA and FACS analyses. […]

Test [7] addresses T2, human CTLA4-hFc. Briefly: ELISA, humanized antibody on coated human CTLA4.
Test [8] concerns the target T1, human CTLA4 on hCTLA4-293T cells. Briefly: FACS on hCTLA4-293T cells, humanized antibody. The method, then:
as §4
(§6) After generation and purification of humanized 6F3-hIgG1 and 10B10-hIgG1 antibodies, the binding and specificity of the antibodies were determined using ELISA-based binding and CTLA4/CD80 blockage analyses, as well as FACS-based binding and CTLA4/CD80 blockage analyses. The methods used were similar to those described above in EXAMPLE 4.

The target is the same in test [9]. Briefly: FACS blockage of biotinylated human CD80 binding to hCTLA4-293T cells. The method, then:
as §1, §6
The source holds these as a separate data set.

The target in test [10] is T3, human CTLA4 (construct not stated). Briefly: SPR (Biacore 3000), capture method as in Example 5, CTLA4 as analyte. The procedure: as §3
The binding kinetics between CTLA4 and humanized CTLA4 antibodies were measured by Biacore3000 as described in Example 5. The dissociation constant, KD, was calculated from the determined rate constants by the relation KD=kd/ka.

Test [11] has as its target T4, human CTLA4-mFc. Briefly: ELISA blockage of biotinylated CD80-mFc binding to coated human CTLA4-mFc. The procedure: as §5, with “Secondary antibody (Avidin HRP, eBioscience Cat No: E07418-1632, 1:500, 100 μl/well) was added, incubated at 37° C. for 0.5 hour, and washed 3 times. TMB (Sigma, Cat No: T0440, 100 μl/well) was added, and incubated for 3 min at room temperature. To stop the reaction, 2N H₂SO₄ (100 μl/well), was added.” left out
After generation and purification of humanized 6F3-hIgG1 and 10B10-hIgG1 antibodies, the binding and specificity of the antibodies were determined using ELISA-based binding and CTLA4/CD80 blockage analyses, as well as FACS-based binding and CTLA4/CD80 blockage analyses. […]
The source holds these as a separate data set.

Read-outs that look alike come from different tables or passages of the source.

B1: 10B10 murine (antibody, V domains shown)
VH: DVQLQESGPGLVTPSQSLSLTCSVTGYSITSGYSWNWIRQFPGNKLEWMGYIRFDGNNNYNPFLKNRISITRDTSENQFFLKLNSVTTEDTATYYCARNYGTWGAMDFWGQGTSVTVSS
VL: DIVLTQSPSSLSASLGGKVTITCKTSQDINKYMAWYQHKPGKGPRLLIYYTSILQPGIPSRFSGSGSGTDYSFSINNLEPEDIATYYCQQYDNLNTFGGGTMLEIK
notes: Mouse monoclonal antibody purified from hybridoma supernatant on Protein G; also called murine antibody 10B10; anti-CTLA4 hybridoma antibody 10B10
Consider B1, for which, in [1], the IC50 (as a rule, the concentration that gives 50% inhibition) was found to be 0.511 µg/mL. Moreover, the binding result in test [2] was “no binding”. Further, the half-maximal effective concentration (EC50) – broadly, the concentration that produces a half-maximal response – in test [3] turned out to be 0.0127 µg/mL. Also, in [4], the affinity, expressed as Kd, was 0.219 nM; the koff (commonly a measure of how fast the partners let go of each other) was 0.000152 s⁻¹; the kon (commonly the rate constant with which the complex forms) came out at 693000 M⁻¹ s⁻¹. The same molecule gave an EC50 in [5] of 0.305 µg/mL. This molecule showed a half-maximal inhibitory concentration (IC50) in test [6] of 0.594 µg/mL.

B2: 6F3 murine (antibody, V domains shown)
VH: QVKLQESGAELVRPGASVTLSCKASGYTFTDYEMHWMKQTPVHGLEWIGVIDPETGGITYNQKFKGKATLTADKSSSTAYMEFLSLTSEDSAVYYCTRRGARATVYNYVMDYWGQGTSVTVSS
VL: DIVMTQTTASLSASVGETVTITCRASENIHNYLAWYQQKQGRSPQLLVYNAKTLGDGVPSRFSGSGSGTQYSLKINSLQPEDFGSYYCQHFWSTPWTFGGGTKLEIK
notes: Mouse monoclonal antibody purified from hybridoma supernatant on Protein G; also called murine antibody 6F3; anti-CTLA4 hybridoma antibody 6F3
Molecule B2 yielded a concentration for half-maximal inhibition (IC50) in test [1] of 0.526 µg/mL. Further, the binding result in test [2] is reported as “no binding”. A half-maximal response in test [3] (EC50) required 0.025 µg/mL. Moreover, in [4], the affinity, expressed as Kd, was 0.409 nM; the koff came to 0.000244 s⁻¹; the kon was determined as 598000 M⁻¹ s⁻¹. In test [5], this molecule had an EC50 of 1.18 µg/mL. In [6], the IC50 was determined as 0.526 µg/mL.

B3: 6F3 humanized (antibody, human IgG1, kappa, V domains shown)
VH: QVQLVQSGAEVKKPGSSVKVSCKASGYTFTDYEMHWVRQAPGQGLEWIGVIDPETGGITYNQKFKGRATLTADKSTSTAYMELSSLRSEDTAVYYCTRRGARATVYNYVMDYWGQGTLVTVSS
VL: DIQMTQSPSSLSASVGDRVTITCRASENIHNYLAWYQQKPGKAPKLLVYNAKTLGDGVPSRFSGSGSGTDYTLTISSLQPEDFATYYCQHFWSTPWTFGGGTKVEIKR
notes: Humanized IgG1, expressed in Freestyle 293 cells; also called h6F3-IgG1; humanized 6F3-hIgG1
B3 displayed an EC50 in [7] of 2.01 ng/mL. The midpoint of the response in test [8], the EC50, lay at 2.33 µg/mL. Moreover, the half-inhibitory concentration (IC50) in [9] amounted to 0.435 µg/mL. Moreover, in [10], binding was put at a Kd of 0.441 nM, the koff was determined as 0.00013 s⁻¹ and the kon is 295000 M⁻¹ s⁻¹. Also, the IC50 in [11] stood at 0.295 µg/mL.

B4: 10B10 humanized (antibody, human IgG1, kappa, V domains shown)
VH: QVQLQESGPGLVKPSQTLSLTCAVSGYSITSGYSWNWIRQPPGKGLEWMGYIRFDGNNNYNPFLKNRITISRDTSKNQFSLKLSSVTAADTAVYYCARNYGTWGAMDFWGQGTLVTVSS
VL: DIQLTQSPSSLSASVGDRVTITCKTSQDINKYMAWYQQKPGKAPKLLIYYTSILQPGVPSRFSGSGSGTDYTFTISSLQPEDIATYYCQQYDNLNTFGGGTKVEIKR
notes: Humanized IgG1, expressed in Freestyle 293 cells; also called h10B10-IgG1; humanized 10B10-hIgG1
In test [7], B4 returned an EC50 of 2.93 ng/mL. Besides, a half-maximal response in test [8] (EC50) required 5.28 µg/mL. For the same molecule, the IC50 in test [9] worked out at 0.0253 µg/mL. Moreover, in test [10], the equilibrium dissociation constant (Kd) – broadly, a measure of binding affinity in units of concentration – is 0.273 nM; the koff was determined as 0.000113 s⁻¹; the kon was 414000 M⁻¹ s⁻¹. The molecule also gave a 50% inhibitory concentration (IC50) in test [11] of 0.285 µg/mL.
